In patent WO2009150539A2 (dated 2009):
“And” between values parts separate entries of the source, which are not always exact repeats. Equal entries are not always repeated.

Legend:
[1] = target: T1, AahII toxin of Androctonus australis hector (Androctonus australis hector, UniProt P01484 20-83); experiment: SPR (BIAcore), AahII immobilised on CM5 chip, Nb in mobile phase
T1 construct: mature; also called Aahll
T1 sequence: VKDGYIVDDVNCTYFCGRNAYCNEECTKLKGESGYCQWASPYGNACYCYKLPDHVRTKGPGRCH

[2] = target: AahI' toxin of Androctonus australis hector (Androctonus australis hector) (UniProt P01479); experiment: cell-based or functional assay
Sequence of AahI' toxin of Androctonus australis hector (Androctonus australis hector) (P01479 20-82): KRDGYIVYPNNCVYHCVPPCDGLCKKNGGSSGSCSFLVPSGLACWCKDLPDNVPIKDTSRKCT

[3] = target: T1, AahII toxin of Androctonus australis …; experiment: cell-based or functional assay

B1: NbAahII08 (VHH)
VHH: DVQLVESGGGSVQAGGSLRLSCAASGDSYSNYYMAWFRQAPGKEREGVAHINRSGRITLYADSVKGRFTMSRDNAKNTVYLQMNSLKPEDTAIYYCAAGVRTHMPPLASYGFDYWGQGTQVTVSS
notes: also called cluster F
Binder B1 has a Kd [1] of 0.12 nM, a koff [1] of 0.00138 s⁻¹ and a kon [1] of 1.19e+07 M⁻¹ s⁻¹.

B2: AahI'D11 (VHH)
VHH: QVQLQESGGGSVEAGGSLRLSCATSGFTFSRYAMYWFRQAPGMECEWVSTIHTNGDTYYANSLKGRFTGSRDNAKNTAYLQMNSLKPEDTAVYYCHAPLNDGSTPTHICSRAGSYGYWGQGTQVTVSS
In the case of B2, the surviving mice; i.c.v.; 4 LD50 AahI'; ratio 1:2 (survivors of 4 mice) [2] is reported as 2.

B3: NbAahII39 (VHH)
VHH: QVQLVESGGGSVQAGGSLRLSCAASGYTCTKFNMGWYRQAPGKERKMVATIRRDGTTYYADSVKGRFTISQDNAKNTVYLQMTSLKPEDSAMYYCSFRCVTPSLPYWGQGTQVTVSS
notes: also called cluster G
Binder B3 has a Kd [1] of 0.16 nM, a koff [1] of 0.00105 s⁻¹ and a kon [1] of 6.41e+06 M⁻¹ s⁻¹.

B4: AahI'D19 (VHH)
VHH: QVQLQESGGGLVQPGGSLRLSCAVTDFTFSFYWMYWVRQAPGKNLEWISSLHSDGYTYYPDSVKGRFTISRDTAKNMLYLQMNSLKPEDTAVYYCATAIRNMWGQAAPGSAGYWGQGTQVTVSS
Work on B4 yielded a surviving mice; i.c.v.; 4 LD50 AahI'; ratio 1:2 (survivors of 4 mice) [2] of 4.

B5: NbAahII41 (VHH)
VHH: QVQLVESGGGSVQAGGSLRLSCAASGFDFSIYVMSWVRQAPGKGLEWISGIMPSGQTTYADAVKGRFTISRDNAKNTLYLQLNSLKTEDTAIYYCAKGVYTKYVGGARGQGTQVTVSS
notes: also called cluster I
In the case of B5, the Kd [1] is reported as 2.31 nM, the koff [1] is reported as 0.01 s⁻¹ and the kon [1] is reported as 4.33e+06 M⁻¹ s⁻¹.

B6: NbAahII36 (VHH)
VHH: QVQLVESGGGSVQAGGSLRLSCAASGYTFSNYRMGWFRQAPGKECELVSTILTDGSTNYADSVKGRFTISRDNAKNTVYLLMNNLKAEDTAVYYCAAGNSRKGYLRRCGGTDFGYWGQGTQVTVSS
notes: also called cluster C
With B6 the “Survivors/Injected mice; i.c.v.; AahII:Nb 1:2; 2 LD50/mouse; 24 ng Nb/mouse” value [3] was 1 survivors of 4 mice, the “Survivors/Injected mice; i.c.v.; AahII:Nb 1:2; 3 LD50/mouse; 36 ng Nb/mouse” value [3] was 0 survivors of 4 mice and the Kd [1] was 0.67 nM. The koff [1] was 0.00137 s⁻¹ and the kon [1] was 2.04e+06 M⁻¹ s⁻¹.

B7: NbAahII20 (VHH)
VHH: QVQLQESGGGLVQPGGSLRLSCTASGFDFSRYVMSWVRQAPGKDFEWISGIMPLSSAGTTYADAVKGRFTISRDNAKNTLYLQLNNLKTEDTAIYYCAKGVYTTYIGGARGQGTQVTVSS
notes: Purified from E. coli periplasm with His6; also called NbAahIKO (I); cluster I
B7 was tested, and the “NC = (LD50 with Nb - LD50 without Nb)/Nb; i.c.v.; AahII:Nb 1:4” value [3] was 27000 LD50/mg and 400 LD50/nmol, the “Survivors/Injected mice; i.c.v.; AahII:Nb 1:2; 2 LD50/mouse; 24 ng Nb/mouse” value [3] was 3 survivors of 4 mice and the “Survivors/Injected mice; i.c.v.; AahII:Nb 1:2; 4 LD50/mouse; 48 ng Nb/mouse” value [3] was 2 survivors of 4 mice. The “Survivors/Injected mice; i.c.v.; AahII:Nb 1:4; 3 LD50/mouse; 72 ng Nb/mouse” value [3] was 2 survivors of 4 mice, the Kd [1] was 0.26 nM and the koff [1] was 0.00213 s⁻¹. It also gave a kon [1] of 8.18e+06 M⁻¹ s⁻¹.

B8: AahI'F12 (VHH)
VHH: QVQLQESGGGSVQAGGSLRLSCVGPGISYVYNRVGWFRQAPGKESEVVAAFYTSNTSALYYAAQVKGRFTISQGNAKNTVYLQMNNLKPEDSGKYYCATANGGLLSDARGYRHYGQGTQVTVSS
With B8 the surviving mice; i.c.v.; 4 LD50 AahI'; ratio 1:2 (survivors of 4 mice) [2] was 4, the surviving mice; i.c.v.; 20 LD50 AahI'; ratio 1:2 (survivors of 4 mice) [2] was 4 and the surviving mice; i.c.v.; 23 LD50 AahI'; ratio 1:2 (survivors of 4 mice) [2] was 4. For the same binder, the surviving mice; i.c.v.; 26 LD50 AahI'; ratio 1:2 (survivors of 4 mice) [2] was 4, the surviving mice; i.c.v.; 29 LD50 AahI'; ratio 1:2 (survivors of 4 mice) [2] was 4 and the surviving mice; i.c.v.; 33 LD50 AahI'; ratio 1:2 (survivors of 4 mice) [2] was 4. It also gave a surviving mice; i.c.v.; 37 LD50 AahI'; ratio 1:2 (survivors of 4 mice) [2] of 4, a surviving mice; i.c.v.; 47 LD50 AahI'; ratio 1:2 (survivors of 4 mice) [2] of 4 and a surviving mice; i.c.v.; 60 LD50 AahI'; ratio 1:2 (survivors of 4 mice) [2] of 4. It also gave a surviving mice; i.c.v.; 70 LD50 AahI'; ratio 1:2 (survivors of 4 mice) [2] of 4, a surviving mice; i.c.v.; 75 LD50 AahI'; ratio 1:2 (survivors of 4 mice) [2] of 4 and a surviving mice; i.c.v.; 80 LD50 AahI'; ratio 1:2 (survivors of 4 mice) [2] of 4. The surviving mice; i.c.v.; 90 LD50 AahI'; ratio 1:2 (survivors of 4 mice) [2] was 4, the surviving mice; i.c.v.; 95 LD50 AahI'; ratio 1:1 (survivors of 4 mice) [2] was 2 and the surviving mice; i.c.v.; 95 LD50 AahI'; ratio 1:2 (survivors of 4 mice) [2] was 4. It also gave a surviving mice; i.c.v.; 100 LD50 AahI'; ratio 1:1 (survivors of 4 mice) [2] of 2 and a surviving mice; i.c.v.; 100 LD50 AahI'; ratio 1:2 (survivors of 4 mice) [2] of 4.

B9: AahI'A3 (VHH)
VHH: QVQLQESGGGSVQAGGSLRLSCAASGFTFRSPYCMGWFRQAPGKEREAVAAIKTYYAGTVYADSMKGRFTITQDIAKNTVYLQMNSLKPEDTATYYCAATGGPYNGRCPLTSQPFPNWGQGTQVTVSS
B9 showed a surviving mice; i.c.v.; 4 LD50 AahI'; ratio 1:2 (survivors of 4 mice) [2] of 4.

B10: AahI'C14 (VHH)
VHH: QVQLQESGGGSVQAEGSLRLSCTVSGLTSSSNYVGWFRQAPGKEREGVATIGPYTRNTRYADSVNGRFTISLDNAKSTLYLQMNGLKPEDTAIYYCAAGKTTWIRALRSDDYKYWGQGTQVTVSS
Binder B10 has a surviving mice; i.c.v.; 4 LD50 AahI'; ratio 1:2 (survivors of 4 mice) [2] of 0.

B11: AahI'B23 (VHH)
VHH: QVQLQESGGGSVQAGGSLRLSCAASGYQQTGYCMGWFRQAPGKEREGVAVIKTFYAGTVYADSVKGRFTISQDIAKNTVYLQMNSLQPEDTAMYYCAITGGPWNGRCPLTSQAFRYWGQGTQVTVSS
Work on B11 yielded a surviving mice; i.c.v.; 4 LD50 AahI'; ratio 1:2 (survivors of 4 mice) [2] of 0.

B12: AahI'B1 (VHH)
VHH: QVQLQESGGGSVQAGGSLRLSCTASKYTSAVGWFRQAPGKEREGVASIYGYTGSGSSGSTYYADSGKGRFTISRDSAKNMVYLQMNSLKPEDTAMYYCTAADRPRFRLLVEDDVVYWGQGTQVTVSS
B12 showed a surviving mice; i.c.v.; 4 LD50 AahI'; ratio 1:2 (survivors of 4 mice) [2] of 0.
